Paper PMC2959155 (Journal of immunology (Baltimore, Md. : 1950), 2008)

Assays:
[1] = target: T1, recombinant His-tagged 6xEMPD (6 times repeated EMPD of mouse mIgE) (Mus musculus (mouse), membrane IgE …); experiment: ELISA
T1 chain: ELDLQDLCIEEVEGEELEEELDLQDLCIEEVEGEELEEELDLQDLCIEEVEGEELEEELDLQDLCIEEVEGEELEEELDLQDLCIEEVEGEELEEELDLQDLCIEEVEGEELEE

[2] = target: T1, recombinant His-tagged 6xEMPD (6 times …); experiment: SPR

B1: mAbA9, mouse monoclonal anti-mouse EMPD antibody of γ1 isotype (antibody, V domains shown)
VH: EVQLVESGGGLVQPGGSLRLSCATSGFTFTDYYMTWVRQPPGKALEWLGFIRNKANGYTTEYSASVKGRFTVSRDNSQSILYLQMNTLRAEDSATYYCASPIYYGSPSWLWTYWGQGTSVTVSS
VL: QIVLTQSPAIMAASLGQKVTMTCSASSSVSSSYLHWYQQKSGASPKPLIHRTSNLASGVPARFSGSGSGTSYSLTISSVEAEDDATYYCQQWSGYPLTFGAGTKLELK
Q: With B1 as the binder, how does the “% competition at 10-fold molar excess of 6xEMPD” value [1] read?
A: 43%

Q: And the Kd [2]?
A: 7.4 nM
